Measured values reported in US20150166606A1 (RA PHARMACEUTICALS, published 2015).
Like-named read-outs stand apart in the source and are kept apart here. Bridge positions count the residues as written; N and C are the ends. Square brackets hold non-standard residues; d marks the D form. Ends that are not written are not given here. * marks the point of attachment. mXylyl = xylyl linker from dibromoxylene joining the two cysteines; des‑NH2 = missing amino-terminal amine group; NMeY = CN[C@@H](Cc1ccc(O)cc1)C(=O)O; Phg = N[C@H](C(=O)O)c1ccccc1; Tle = CC(C)(C)[C@H](N)C(=O)O; NMeS = CN[C@@H](CO)C(=O)O; Heptanoyl = CCCCCCC(=O)*; Nva = CCC[C@H](N)C(=O)O

T1: Factor VIIa (Enzyme Research Laboratories) (human, UniProt P08709 61-466)
T1 sequence (looked up): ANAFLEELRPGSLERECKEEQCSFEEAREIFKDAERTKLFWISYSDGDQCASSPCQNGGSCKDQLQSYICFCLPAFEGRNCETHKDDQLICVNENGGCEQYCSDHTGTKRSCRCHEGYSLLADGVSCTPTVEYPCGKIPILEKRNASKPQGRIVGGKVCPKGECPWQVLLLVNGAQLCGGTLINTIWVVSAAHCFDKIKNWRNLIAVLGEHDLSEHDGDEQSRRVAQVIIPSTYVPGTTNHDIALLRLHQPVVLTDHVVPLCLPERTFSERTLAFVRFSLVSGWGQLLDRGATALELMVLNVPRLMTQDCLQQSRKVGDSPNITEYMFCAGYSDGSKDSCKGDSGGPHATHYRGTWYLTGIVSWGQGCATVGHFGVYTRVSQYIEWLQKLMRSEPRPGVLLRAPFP

T2: Factor XIIa (Enzyme Research Laboratories) (human, UniProt P00748 20-615, limits assumed)
T2 sequence (looked up): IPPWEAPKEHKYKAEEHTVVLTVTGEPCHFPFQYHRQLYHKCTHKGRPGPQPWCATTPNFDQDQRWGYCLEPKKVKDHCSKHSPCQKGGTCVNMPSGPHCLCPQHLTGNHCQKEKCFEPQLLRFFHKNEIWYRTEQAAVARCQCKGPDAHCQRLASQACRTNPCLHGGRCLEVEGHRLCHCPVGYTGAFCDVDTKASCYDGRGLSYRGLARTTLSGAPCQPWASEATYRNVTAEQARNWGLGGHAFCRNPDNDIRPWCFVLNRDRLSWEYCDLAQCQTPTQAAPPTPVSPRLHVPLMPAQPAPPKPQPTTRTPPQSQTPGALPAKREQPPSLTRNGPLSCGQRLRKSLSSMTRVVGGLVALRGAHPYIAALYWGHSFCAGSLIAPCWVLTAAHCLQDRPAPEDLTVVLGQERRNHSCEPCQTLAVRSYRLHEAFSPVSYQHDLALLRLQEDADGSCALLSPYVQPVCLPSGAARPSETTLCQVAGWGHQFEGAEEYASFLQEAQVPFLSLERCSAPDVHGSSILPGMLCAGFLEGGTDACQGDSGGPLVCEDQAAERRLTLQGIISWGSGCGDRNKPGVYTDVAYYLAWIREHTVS

T3: tissue kallikrein KLK13 (R&D Systems) (human, UniProt Q9UKR3 17-277, limits assumed)
T3 sequence (looked up): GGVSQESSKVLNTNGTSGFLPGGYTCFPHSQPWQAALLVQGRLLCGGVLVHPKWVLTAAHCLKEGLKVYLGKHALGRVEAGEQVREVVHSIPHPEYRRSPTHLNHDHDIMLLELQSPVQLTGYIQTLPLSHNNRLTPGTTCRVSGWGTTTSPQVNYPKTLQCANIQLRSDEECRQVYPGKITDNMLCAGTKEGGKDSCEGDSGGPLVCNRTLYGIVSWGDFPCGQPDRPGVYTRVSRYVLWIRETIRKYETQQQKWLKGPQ


Experiments:
Assay in all cases: cell-based or functional assay
[1] = target: T4, Activated human plasma kallikrein (Enzyme Research Laboratories, HPKa 1303) (human, UniProt P03952 20-638)
[2] = target: T4, Activated human plasma kallikrein …; remark: listed apart in the source
[3] = target: T4, Activated human plasma kallikrein …; remark: listed apart in the source
[4] = target: mouse plasma kallikrein (R&D Systems) (mouse, UniProt P26262 20-638)
[5] = target: T1, Factor VIIa (Enzyme Research …)
[6] = target: Factor Xa (Enzyme Research Laboratories) (human, UniProt P00742 41-488, limits assumed)
[7] = target: Factor XIa (Enzyme Research Laboratories) (human, UniProt P03951 19-625)
[8] = target: T2, Factor XIIa (Enzyme Research …)
[9] = target: T3, tissue kallikrein KLK13 (R&D Systems)
[10] = target: thrombin (Enzyme Research Laboratories) (human, UniProt P00734 328-622)
[11] = target: plasmin (Enzyme Research Laboratories) (human, UniProt P00747 97-810, limits assumed)
[12] = target: T4, Activated human plasma kallikrein …; remark: listed apart in the source
[13] = target: T4, Activated human plasma kallikrein …; remark: listed apart in the source

Sequence of mouse plasma kallikrein (R&D Systems) (P26262 20-638 limits assumed): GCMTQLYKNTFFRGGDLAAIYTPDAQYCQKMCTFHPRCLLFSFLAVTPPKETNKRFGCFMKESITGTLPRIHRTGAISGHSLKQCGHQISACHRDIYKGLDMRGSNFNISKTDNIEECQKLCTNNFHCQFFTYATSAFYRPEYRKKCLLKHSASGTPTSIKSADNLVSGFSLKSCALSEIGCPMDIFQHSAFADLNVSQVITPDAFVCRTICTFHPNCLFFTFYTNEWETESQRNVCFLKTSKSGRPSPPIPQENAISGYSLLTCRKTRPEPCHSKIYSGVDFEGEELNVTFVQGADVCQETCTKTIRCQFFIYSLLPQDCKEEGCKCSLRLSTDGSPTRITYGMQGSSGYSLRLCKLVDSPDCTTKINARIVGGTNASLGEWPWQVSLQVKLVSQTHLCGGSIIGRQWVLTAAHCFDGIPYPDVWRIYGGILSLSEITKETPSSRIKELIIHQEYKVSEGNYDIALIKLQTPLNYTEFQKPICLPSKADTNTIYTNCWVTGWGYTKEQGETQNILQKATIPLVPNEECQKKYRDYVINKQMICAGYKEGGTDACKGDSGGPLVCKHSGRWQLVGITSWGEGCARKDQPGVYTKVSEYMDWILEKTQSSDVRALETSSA
Sequence of Factor Xa (Enzyme Research Laboratories) (P00742 41-488 limits assumed): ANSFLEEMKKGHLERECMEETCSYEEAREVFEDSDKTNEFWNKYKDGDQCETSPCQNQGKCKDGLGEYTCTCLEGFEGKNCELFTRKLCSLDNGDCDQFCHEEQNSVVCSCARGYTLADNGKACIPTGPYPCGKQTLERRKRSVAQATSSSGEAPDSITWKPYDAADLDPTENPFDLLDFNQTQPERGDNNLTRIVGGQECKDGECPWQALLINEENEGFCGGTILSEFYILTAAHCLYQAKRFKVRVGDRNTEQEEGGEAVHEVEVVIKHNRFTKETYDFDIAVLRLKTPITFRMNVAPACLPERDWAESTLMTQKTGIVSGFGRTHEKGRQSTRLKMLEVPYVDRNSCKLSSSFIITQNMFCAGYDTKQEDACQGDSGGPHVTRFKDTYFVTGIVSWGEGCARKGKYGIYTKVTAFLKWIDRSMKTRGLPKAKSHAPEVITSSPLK
T4 sequence (P03952 20-638 limits assumed): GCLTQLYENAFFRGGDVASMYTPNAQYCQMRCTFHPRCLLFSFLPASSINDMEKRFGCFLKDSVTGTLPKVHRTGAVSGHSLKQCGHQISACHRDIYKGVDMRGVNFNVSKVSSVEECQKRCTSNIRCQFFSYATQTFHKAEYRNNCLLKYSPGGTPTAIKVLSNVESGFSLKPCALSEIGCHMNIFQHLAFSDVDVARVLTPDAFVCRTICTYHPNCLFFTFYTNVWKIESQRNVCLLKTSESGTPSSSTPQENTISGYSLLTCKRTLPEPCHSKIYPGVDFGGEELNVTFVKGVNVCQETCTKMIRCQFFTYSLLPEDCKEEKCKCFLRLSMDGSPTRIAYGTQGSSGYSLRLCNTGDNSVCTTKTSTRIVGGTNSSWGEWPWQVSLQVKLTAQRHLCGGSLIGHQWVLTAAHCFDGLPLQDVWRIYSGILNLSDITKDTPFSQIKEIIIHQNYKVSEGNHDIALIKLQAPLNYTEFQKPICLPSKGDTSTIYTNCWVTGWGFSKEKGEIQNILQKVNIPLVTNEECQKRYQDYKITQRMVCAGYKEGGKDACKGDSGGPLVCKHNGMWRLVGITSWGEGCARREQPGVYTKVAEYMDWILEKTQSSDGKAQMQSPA
Sequence of Factor XIa (Enzyme Research Laboratories) (P03951 19-625 limits assumed): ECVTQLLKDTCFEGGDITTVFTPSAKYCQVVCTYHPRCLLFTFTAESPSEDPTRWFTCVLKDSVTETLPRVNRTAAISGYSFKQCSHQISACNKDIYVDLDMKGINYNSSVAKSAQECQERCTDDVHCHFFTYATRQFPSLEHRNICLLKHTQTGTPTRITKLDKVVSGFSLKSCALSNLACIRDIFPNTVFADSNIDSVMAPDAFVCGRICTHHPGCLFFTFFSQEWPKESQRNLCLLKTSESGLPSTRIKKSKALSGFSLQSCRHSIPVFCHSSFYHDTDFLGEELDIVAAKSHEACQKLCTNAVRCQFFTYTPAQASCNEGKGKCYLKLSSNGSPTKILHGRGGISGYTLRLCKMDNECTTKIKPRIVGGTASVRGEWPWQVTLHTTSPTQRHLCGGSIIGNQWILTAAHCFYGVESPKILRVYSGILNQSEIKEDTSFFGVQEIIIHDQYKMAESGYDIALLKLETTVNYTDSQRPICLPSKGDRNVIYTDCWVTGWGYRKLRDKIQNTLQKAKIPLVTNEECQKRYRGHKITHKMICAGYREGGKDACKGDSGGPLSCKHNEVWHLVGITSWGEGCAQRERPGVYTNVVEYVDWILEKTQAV
Sequence of plasmin (Enzyme Research Laboratories) (P00747 97-810 limits assumed): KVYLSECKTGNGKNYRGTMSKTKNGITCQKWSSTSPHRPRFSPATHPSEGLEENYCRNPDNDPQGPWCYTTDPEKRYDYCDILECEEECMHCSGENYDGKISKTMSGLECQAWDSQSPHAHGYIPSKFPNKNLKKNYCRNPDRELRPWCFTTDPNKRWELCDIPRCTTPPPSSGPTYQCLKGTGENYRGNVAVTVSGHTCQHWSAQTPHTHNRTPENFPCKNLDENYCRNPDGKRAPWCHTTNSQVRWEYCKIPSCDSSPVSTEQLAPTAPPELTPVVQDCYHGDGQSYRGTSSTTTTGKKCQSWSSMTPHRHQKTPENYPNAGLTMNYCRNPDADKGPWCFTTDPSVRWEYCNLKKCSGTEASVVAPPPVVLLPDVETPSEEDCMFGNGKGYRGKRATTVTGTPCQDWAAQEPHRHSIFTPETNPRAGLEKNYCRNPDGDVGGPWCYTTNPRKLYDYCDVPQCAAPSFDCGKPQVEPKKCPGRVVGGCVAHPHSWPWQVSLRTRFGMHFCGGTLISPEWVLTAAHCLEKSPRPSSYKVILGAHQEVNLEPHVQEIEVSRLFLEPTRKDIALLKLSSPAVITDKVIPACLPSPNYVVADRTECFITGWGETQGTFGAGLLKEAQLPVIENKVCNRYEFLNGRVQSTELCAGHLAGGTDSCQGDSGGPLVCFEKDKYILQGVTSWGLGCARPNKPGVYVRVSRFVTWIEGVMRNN

Binder	Avg. IC50 [1] [µM]	Avg. IC50 [2] [µM]	Human Kallikrein IC50 [3] [µM]	Mouse Kallikrein IC50 [4] [µM]	Factor VIIa IC50 [5] [µM]	Factor Xa IC50 [6] [µM]	Factor XIa IC50 [7] [µM]	Factor XIIa IC50 [8] [µM]	KLK13 IC50 [9] [µM]	Thrombin IC50 [10] [µM]	Plasmin IC50 [11] [µM]	Avg. IC50 [12] [µM]	Avg. IC50 [13] [µM]
Ac-CN[NMeY]WSPWTAC-NH2 (cysteine pairing not given here) [R2239]	> 12.5												
Heptanoyl-CESICRV-NH2 (linker 1-5 via mXylyl) [R2041]		0.0242	0.0242	0.191	> 17.9	> 7	> 5.4	> 100	> 100	> 100	> 100		
MCESICRV-NH2 (linker 2-6 via mXylyl) [R2006]		0.0118	0.025	0.042	> 100	> 7	> 11.6	> 100	> 100	> 100	> 100		
[Nva]CEP[Phg]CR[Tle]-NH2 (linker 2-6 via mXylyl) [R2030]		0.025	0.025	0.0639	> 100	> 100	> 10.4	> 100	> 100	> 100	> 100		
Ac-CAS[Phg]CR[Tle]-NH2 (linker 1-5 via mXylyl) [R2036]		0.0064	0.0064	0.0128	> 100	> 7	> 4.8	> 100	> 100	> 100	> 19.5		
Ac-CESICRV-NH2 (linker 1-5 via mXylyl) [R2023]		0.019	0.019	0.0473	> 100	> 7	> 12.1	> 100	> 100	> 100	> 100		
MCE[NMeS]ICRV-NH2 (linker 2-6 via mXylyl) [R2019]		0.0523	0.0523	0.0856	> 100	> 10	> 9.1	> 12.5	> 16.4	> 100	> 21		
MCESICRVLRYSE-NH2 (linker 2-6 via mXylyl) [R2004]		0.000501										0.000501	
Ac-CASICRV-NH2 (linker 1-5 via mXylyl; not fully specified (residue 2); printed as [mXylyl(1,5)]Ac-C-a-SICRV-NH2) [R2047]		0.0174	0.0323	0.0367	> 100	> 100	> 13.8	> 100	> 100	> 100	> 100		
MCESICR[Tle]-NH2 (linker 2-6 via mXylyl) [R2010]		0.0099	0.0099	0.0388	> 100	> 100	> 15	> 100	> 100	> 100	> 100		
MCES[Phg]CRV-NH2 (linker 2-6 via mXylyl) [R2012]		0.0083	0.0083	0.0113			> 8.3		> 100				
{des‑NH2}-CESICRV-NH2 (linker 1-5 via mXylyl; not fully specified (residue 1); printed as [mXylyl(1,5)](des-NH2)C-ESICRV-NH2) [R2051]		0.0129	0.0129	0.0193	> 100	> 100	> 8.3	> 100	> 100	> 100	> 100		
MCNYWSPWTECSR-NH2 (linker 2-11 via mXylyl) [R2003]												0.0031	0.0031
MCNYWSPWTECSA-NH2 (cysteine pairing not given here) [R2104]			0.0034	0.0112	> 100	> 100	> 5	> 100	> 100	> 100	5.8		0.0034
